Assay results taken from patent US20250269045A1 (PHARMAESSENTIA, published 2025).

T1: granulocyte colony-stimulating factor receptor (G-CSFR) (human, UniProt Q99062 25-621, limits assumed)
T1 construct: also called GCSF receptor; G-CSF receptor
T1 sequence (looked up): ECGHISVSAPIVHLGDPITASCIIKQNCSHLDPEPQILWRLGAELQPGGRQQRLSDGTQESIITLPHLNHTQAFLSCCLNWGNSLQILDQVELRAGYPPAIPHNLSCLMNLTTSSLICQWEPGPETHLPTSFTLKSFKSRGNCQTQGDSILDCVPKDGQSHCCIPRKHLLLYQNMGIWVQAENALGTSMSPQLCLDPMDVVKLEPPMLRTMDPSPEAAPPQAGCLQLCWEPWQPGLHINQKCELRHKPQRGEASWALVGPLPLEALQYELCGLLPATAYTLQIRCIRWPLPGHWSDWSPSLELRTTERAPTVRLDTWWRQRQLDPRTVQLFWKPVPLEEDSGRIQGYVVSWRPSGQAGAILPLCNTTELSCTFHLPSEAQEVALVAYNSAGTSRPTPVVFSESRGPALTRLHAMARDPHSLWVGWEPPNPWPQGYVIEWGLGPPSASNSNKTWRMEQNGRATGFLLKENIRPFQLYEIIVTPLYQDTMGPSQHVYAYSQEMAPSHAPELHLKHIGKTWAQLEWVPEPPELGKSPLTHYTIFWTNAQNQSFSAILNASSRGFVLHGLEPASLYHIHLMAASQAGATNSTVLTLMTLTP

B1: Filgrastim Reference Standard (ligand, human, UniProt P09919-2 31-204, looked up)
chain: TPLGPASSLPQSFLLKCLEQVRKIQGDGAALQEKLCATYKLCHPEELVLLGHSLGIPWAPLSSCPSQALQLAGCLSQLHSGLFLYQGLLQALEGISPELGPTLDTLQLDVADFATTIWQQMEELGMAPALQPTQGAMPAFASAFQRRAGGVLVASHLQSFLEVSYRVLRHLAQP
notes: also called Filgrastim RS
B2: mPEG-MetHuG-CSF (ligand)
chain: MTPLGPASSLPQSFLLKCLEQVRKIQGDGAALQEKLCATYKLCHPEELVLLGHSLGIPWAPLSSCPSQALQLAGCLSQLHSGLFLYQGLLQALEGISPELGPTLDTLQLDVADFATTIWQQMEELGMAPALQPTQGAMPAFASAFQRRAGGVLVASHLQSFLEVSYRVLRHLAQP
modifications: branched mPEG (two arms, each about 19-23 KDa; 40K-mPEG-aldehyde) covalently attached by amine linkage to the N-terminal Met (residue 1)
notes: also called P2203
B3: MetHuG-CSF (ligand)
chain: MTPLGPASSLPQSFLLKCLEQVRKIQGDGAALQEKLCATYKLCHPEELVLLGHSLGIPWAPLSSCPSQALQLAGCLSQLHSGLFLYQGLLQALEGISPELGPTLDTLQLDVADFATTIWQQMEELGMAPALQPTQGAMPAFASAFQRRAGGVLVASHLQSFLEVSYRVLRHLAQP
notes: 175 aa: the 174 aa human G-CSF plus an N-terminal Met; also called MetHuG-CSF intermediate; human G-CSF with additional N-terminal Met

Experiments:
[1] = biological target: T1, granulocyte colony-stimulating factor …; assay: SPR (Biacore CM5), G-CSFR immobilised, analyte in flow, 1:1 kinetic fit, KD = kd/ka
Protocol: (§1) In this example, G-CSFR (GCSF receptors) were immobilized onto the Sensor Chip CM5 (Biacore, trademarked) as the ligand. In each testing samples, Filgrastim RS (reference standard), MetHuG-CSF, and mPEG-MetHuG-CSF, as the analyte, were flowed through the ligand on CM5 chip respectively. The titration range of test sample analytes used in the assay was 40.5, 20.2, […], 10.1, 5.1, 2.5, 1.3 and 0.6 nM. Formulation buffers of testing samples were also tested as negative controls. The binding between the ligand and the analyte was monitored through SPR sensorgram. As slow-on and slow-off sensorgrams were observed, the kinetics fit model (“1:1 binding”) was used to obtain association constant (ka) and dissociation constant (kd), and KD was calculated by kd/ka.

[2] = biological target: T1, granulocyte colony-stimulating factor …; assay: SPR (Biacore CM5), G-CSFR immobilised; this sample is the reference itself
Protocol: as §1
(§2) In Table 6 below, KD values of three testing samples towards G-CSFR were determined by SPR and summarized in the unit of molar concentration (M). For the KD ratio, the KD value of each testing sample was normalized with KD of Filgrastim RS.

[3] = biological target: T1, granulocyte colony-stimulating factor …; assay: SPR (Biacore CM5), G-CSFR immobilised, analyte in flow, 1:1 kinetic fit
Protocol: as §1

[4] = biological target: T1, granulocyte colony-stimulating factor …; assay: SPR (Biacore CM5), G-CSFR immobilised; KD divided by KD of Filgrastim RS
Protocol: as §1, §2

Binder	Kd [1] [nM]	KD ratio (normalised to Filgrastim RS) [2]	koff [3] [s⁻¹]	kon [3] [M⁻¹ s⁻¹]	KD ratio (normalised to Filgrastim RS) [4]
B1	0.595	1	0.000444	747000	–
B2	0.982	–	0.000401	408000	1.65
B3	0.713	–	0.000469	657000	1.2
